Test results: US12152088B2, “Co-assembly peptides, nanostructures, and methods of making and using the same” (University of Florida Research Foundation, Incorporated, priority 2016, dated 2024)

How the values were obtained:
Assay type in all cases: physicochemical
[1] = Circular dichroism (secondary structure); details: peptide incubated alone; CD maxima at 220 nm, minima at 200 nm
Protocol: Circular Dichroism. Circular Dichroism was performed on an AVIV 202 spectrometer. Peptides were prepared in 1× PBS at 500 μM, unless stated otherwise. Samples were run 3 times, averaged, and converted to mean residue ellipticity. All data reported was for dynode values <500 V.

[2] = Macroscopic hydrogel formation; details: aqueous buffered solutions of 12 mM
Protocol: Macroscopic Hydrogel Formation. A 12 mM stock solution of CATCH(−) was prepared by dissolving dry peptide in 1× PBS and adjusting the pH to ˜7.6 with ammonium bicarbonate (Fisher). A 12 mM stock solution of CATCH(+) was prepared by dissolving dry peptide in 1×PBS and adjusting the pH to ˜7.2 with hydrochloric acid (0.5 N Fisher). CATCH peptide stock solutions were combined at a 1:1 (v/v) ratio in a 0.2 mL glass vial (Thermo), and the vial was gently swirled for 2 min until the hydrogel formed. The hydrogel was stained with red food coloring to aid visualization. Hydrogel images were recorded using a digital still camera.

[3] = Nanofiber sedimentation, fusion protein integration into CATCH nanofibers; details: 500 μM CATCH(4/4) or CATCH(6/6) nanofibers
Protocol: Briefly, 500 μM CATCH(4/4) nanofiber sedimentation in the presence of (FIG. 42A) ThT, (FIG. 42B) CATCH(6-)GFP, (FIG. 42C) mCATCH(6-)GFP. […] 500 μM CATCH(6/6) nanofiber sedimentation in the presence of (FIG. 42E) ThT, (FIG. 42F) CATCH(6-) GFP, (FIG. 42G) mCATCH(6-)GFP.

[4] = Protein incorporation / retention in macroscopic hydrogels
Protocol: Protein Incorporation into Macroscopic Hydrogels. Hydrogels were prepared as described above, except 1.5 μM CATCH(−)GFP or mCATCH(−)GFP was added to the 12 mM CATCH(−) solution. Immediately after hydrogel formation, fluorescence was visualized by placing the glass vials on a SafeImager 2.0 transilluminator (Invitrogen) and recording images with a digital still camera. 800 μL of PBS was then carefully overlaid on top of hydrogel. The samples were then incubated for 48 hours to evaluate the protein incorporation within the hydrogel. At various time points, fluorescence in the buffer supernatant was visualized by placing the glass vials on a SafeImager 2.0 transilluminator (Invitrogen) and recording images with a digital still camera. At the end-point, buffer supernatant was carefully removed by decanting and fluorescence was visualized by placing the glass vials on a SafeImager 2.0 transilluminator (Invitrogen) and recording images with a digital still camera.

Row | Substance | secondary structure [1] | flow behaviour / hydrogel formation [2] | integration into CATCH nanofibers [3] | hydrogel fluorescence after incubation ([4]; CATCH hydrogels under volumetric excess of 1× PBS for 48 h) | GFP in the buffer layer over hydrogels ([4]; excess buffer, up to 48 h)
1 | Ac-EQEFEFEFEQE-Am (Ac-EQEFEFEFEQE-NH2) [CATCH(−)] | predominantly random coil | free flowing | integrates into both CATCH(6/6) and CATCH(4/4) nanofibers | – | –
2 | Ac-QQKFKFKFKQQ-Am (Ac-QQKFKFKFKQQ-NH2) [CATCH(+)] | predominantly random coil | free flowing | – | – | –
3 | CATCH(−)GFP: recombinant fusion of CATCH(−) and superfolder green fluorescent protein (GFP) | – | – | – | retained their fluorescence | no GFP was detected
